T1: human TSLPR on Ba/F3-hTSLPR-hIL7Ra cells (human, UniProt Q9HC73 23-371)
T1 sequence (looked up): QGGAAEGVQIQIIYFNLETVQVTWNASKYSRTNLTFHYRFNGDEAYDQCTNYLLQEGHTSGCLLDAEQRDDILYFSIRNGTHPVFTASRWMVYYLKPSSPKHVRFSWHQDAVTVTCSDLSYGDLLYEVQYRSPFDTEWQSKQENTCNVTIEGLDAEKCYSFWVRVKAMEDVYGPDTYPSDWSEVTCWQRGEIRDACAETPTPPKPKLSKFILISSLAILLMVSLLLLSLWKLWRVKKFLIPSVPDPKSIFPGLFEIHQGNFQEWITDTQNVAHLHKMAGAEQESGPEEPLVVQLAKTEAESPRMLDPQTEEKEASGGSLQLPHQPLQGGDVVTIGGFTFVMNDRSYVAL

T2: hTSLPR-ECTO-His (human)
T2 chain: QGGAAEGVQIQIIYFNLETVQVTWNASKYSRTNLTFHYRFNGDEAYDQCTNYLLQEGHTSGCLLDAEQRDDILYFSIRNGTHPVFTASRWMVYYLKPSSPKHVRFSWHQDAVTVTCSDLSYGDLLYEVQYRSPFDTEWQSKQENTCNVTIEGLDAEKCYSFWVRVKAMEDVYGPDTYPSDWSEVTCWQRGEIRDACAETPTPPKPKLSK


Key:
[1] = molecular target: T1, human TSLPR on Ba/F3-hTSLPR-hIL7Ra cells; test: cell-based or functional assay
[2] = molecular target: T3, cTSLPR-Ig (cynomolgus monkey); test: ELISA, plate coated with TSLPR 50 ng/well, HRP goat anti-mouse detection
T3 construct: also called cyTSLP R-hIg P749; Mam-Trans[FlagPreProTrypsin]DELTA2_NHP[Ig]
Method: (§1) The ELISA measures the EC50 of certain mouse anti-TSLPR antibodies generated according to Example 2 are reported on Table 4. The antibodies were purified from hybridoma supernatants, and his-hTSLPR or cTSLPR-Ig was used to determine binding affinity.
(§2) Coating of plates was performed as follows: TSLPR (50 ng per well) in PBS was incubated at 4° C. overnight. Plates were washed with 1 cycle (3 washes/cycle) on a Molecular Devices plate washer. Antibody was then titrated across a row of eight wells in the range of 3000 ng/mL to […] using serial 3-fold dilutions and incubated for 60 min. at 25° C. Plates were washed for 1 cycle, HRP-goat anti-mouse) (1:2,000 dilution) was added at 0.05 mL/well and incubated for 60 min at 25° C. Plates were washed for 1 cycles. ABTS substrate was added at 0.05 mL/well and incubated 10 min at 25 C. Plates read at) or A_{405 nm}. [0223]

[3] = molecular target: T2, hTSLPR-ECTO-His; test: as above
Method: as §1, §2

[4] = molecular target: T3, cTSLPR-Ig; test: SPR BIAcore T100, cyTSLPR-hIg amine-coupled on CM5, antibody as analyte, bivalent analyte model, n = 2
Method: (§3) The kinetic binding activities of the mouse anti human TSLPR antibody 13H5, chimeric anti-human TSLPR 13H5 antibody, rat anti-human TSLPR antibody 18B3, and mouse anti-human TSLPR antibody 70E8 against both human (hu) and cynomolgus monkey (cyno) TSLPR were measured by surface plasmon resonance using a BIAcore T100 system (BIAcore AB, Upsalla, Sweden). Approximately 70RUs of […] were immobilized via amine coupling chemistry onto a Sensor Chip CM5 (Research grade, BR-1006-68). HBS-EP buffer (BR-1006-69) was used as the running buffer with a flow rate of 30 μL/min. Antibodies at varying concentrations ranging from 0.01 to 600 nM were injected over the immobilized hu or cyno TSLP surfaces at a flow rate of 30 μL/min. Following each injection cycle the CM5 chip surface was regenerated using a series of solutions (10 mM Glycine pH 1.5 and 25 mM NaOH respectively) at a flow rate of 75 μL/min.
(§4) Background subtraction binding sensorgrams were used for analyzing the rate constant of association (ka) and dissociation (kd), and the equilibrium dissociation constant KD. The resulting data sets shown in Table 5 were fitted with a bivalent analyte model using the BlAevaluation software (version 1.0).

[5] = molecular target: cynomolgus TSLPR on Ba/F3-cTSLPR-cIL7Ra cells (cynomolgus monkey); test: cell-based or functional assay
[6] = molecular target: T3, cTSLPR-Ig; test: SPR BIAcore T100, cyTSLPR-hIg amine-coupled on CM5, antibody as analyte, bivalent analyte model, n = 6
Method: as §3, §4

Binder	Avg IC50, Ba/F3-huTSLPR proliferation [1]	IC50 Assay I, Ba/F3-huTSLPR proliferation [1]	IC50 Assay II, Ba/F3-huTSLPR proliferation [1]	IC50 Assay III, Ba/F3-huTSLPR proliferation [1]	EC50 [2]	EC50 [3]	Kd [4]	koff [4]	kon [4]	Avg IC50, Ba/F3-cyTSLPR proliferation [5]	IC50 Assay I, Ba/F3-cyTSLPR proliferation [5]	IC50 Assay II, Ba/F3-cyTSLPR proliferation [5]	IC50 Assay III, Ba/F3-cyTSLPR proliferation [5]	Avg IC50, inhibition of hTSLP-induced proliferation of Ba/F3-huTSLPR cells [1]	Kd [6]	koff [6]	kon [6]
mouse antibody 54C11 (antibody, mouse IgG2a, V domains shown, Mouse IgG2a/kappa from hybridoma; also called m54C11; LB55.54C11.3G11) VH: QVQLQQSGPEVVRPGVSVKISCKGSGFTFTDYAIHWVRQSHAKSLEWIGIIRPSNGNTNCDQKFKDKATMTVDKSSSTAYLDLARLTSEDSAIYYCSRSRVWGGSLAYWGQGTLVTVSA VL: DIVMTQSQKFMSTSVGDRVSVTCKASQNVGTNIAWYQQKPGQSPEALIYSASYRYSGVPDRFTGSGSGTDFTLTITNVQSEDLAEYFCQQYKSYPWTFGGGTKLEIKR	0.0203 µg/mL	0.0195 µg/mL	0.0188 µg/mL	0.0227 µg/mL	0.153 µg/mL	0.0059 µg/mL											
rat anti-human TSLPR antibody 18B3 (antibody, V domains shown, Rat monoclonal antibody; also called r18B3; LB1.18B3) VH: EVQLVESGGGLVQPGRSLRLSCVASGFTFNNYWMTWVRQAPGKGLEWVASITDTSGRTYYPDSVKGRFTISRDHAKSTLYLQMNSLRPEDTATYYCTKTLGGIPRDWGQGVMVTVSS VL: NIQLTQSPSLLSASVGDRVTLSCKGSQNINNYLAWYQQKLGEAPKLLIFKTNILQTGIPLRFSGSGSGTDYTLTISSLHCEDLATYYCYQFNNGFTFGPGTKLELKR	0.304 µg/mL	0.318 µg/mL	0.259 µg/mL	0.335 µg/mL			10.1 nM	0.0078 s⁻¹	770000 M⁻¹ s⁻¹								
mouse antibody 54A11 (antibody, mouse IgG2a, V domains shown, Mouse IgG2a/kappa from hybridoma; also called m54A11; LB55.54A11.3D6) VH: EVQLQQSGPELVKPRASVKISCKASGYSFTGYYIHWVKQSHVKSLEWIGRINPYNGATIYNPNFKDKASLTVDKSSSTAFMEVHSLTSEDSAVYYCARSYGYVNYFDYWGQGTTLTVSS VL: EIVLTQSPATLSVTPGDSVSLSCRASQSISNNLHWYHQKSHESPRLLIKFGFQSISGIPSRFSGSGSGTDFTLSINSVETEDFGMYFCQQTNSWLTFGAGTKLELKR	0.178 µg/mL	0.211 µg/mL	0.132 µg/mL	0.191 µg/mL	0.0075 µg/mL	0.0458 µg/mL				0.138 µg/mL	0.125 µg/mL	0.153 µg/mL	0.137 µg/mL				
mouse anti human TSLPR antibody 13H5 (antibody, mouse IgG1, V domains shown, Mouse IgG1/kappa purified from hybridoma supernatant; also called m13H5; LB55.13H5.2C3) VH: QVLLKQSGPSLVQPSQSLSITCTVSGFSLSRYGVHWVRQSPGKGLEWLGVIWRSGSTDYNAAFMSRLSITQDNSKSQVFFNMNSLQSDDSAIYYCAKKAFYVMDYWGQGTSVTVSS VL: DIQMTQTTSSLSASLGDRVTISCRASQDISIYLNWYQQKPDGTVKLLIYYTSRLHSGVPSRFSGSGSGTNFSLTITNLEEEDIATYFCQQGNTLPWTFGGGTKLEIKR		0.0127 µg/mL	0.014 µg/mL	0.0097 µg/mL	> 0.001 µg/mL					0.0129 µg/mL	0.0104 µg/mL	0.0148 µg/mL	0.0134 µg/mL	0.0121 µg/mL	0.089 nM	7.1e-05 s⁻¹	800000 M⁻¹ s⁻¹
mouse antibody 49A5 (antibody, mouse IgG1, V domains shown, Mouse IgG1/kappa from hybridoma; also called m49A5; LB55.49A5.2F9) VH: QVQLKQSGPGLVQPSQSLSITCTVSGFSLTTYGVHWVRQSPGKGLEWLGVIWRGGNTAYNPAFMSRLSITKDNSKSQVFFKMNSLQADDTAIYHCAKKSYYGYHAMGYWGQGTSVTVSS VL: DIQMTQTTSSLSASLGDRVTINCRASQDISNYLNWYQQNPDGTVKLLIYYTSRLHSGVPSRFSGSGSGTDYSLTISNLEQEDIATYFCQQANTLPWTFGGGTKLEIKR	0.127 µg/mL	0.143 µg/mL	0.108 µg/mL	0.131 µg/mL	0.0059 µg/mL	0.0417 µg/mL				0.231 µg/mL	0.202 µg/mL	0.246 µg/mL	0.246 µg/mL				
chimeric anti-human TSLPR 13H5 antibody (antibody, V domains shown, also called chim 13H5; Chimeric 13H5; not shown: human IgG1 heavy chain constant region (CH1-hinge-CH2-CH3); human kappa light chain constant domain (CL domain)) VH: QVLLKQSGPSLVQPSQSLSITCTVSGFSLSRYGVHWVRQSPGKGLEWLGVIWRSGSTDYNAAFMSRLSITQDNSKSQVFFNMNSLQSDDSAIYYCAKKAFYVMDYWGQGTSVTVSS VL: DIQMTQTTSSLSASLGDRVTISCRASQDISIYLNWYQQKPDGTVKLLIYYTSRLHSGVPSRFSGSGSGTNFSLTITNLEEEDIATYFCQQGNTLPWTFGGGTKLEIKR							0.374 nM	0.000172 s⁻¹	460000 M⁻¹ s⁻¹								
mouse anti-human TSLPR antibody 70E8 (antibody, mouse IgG1, V domains shown, Mouse IgG1/kappa from hybridoma; also called m70E8; LB55.70E8.1A8) VH: DVQLQESGPDLVKPSQSLSLTCTVTNYSITSGYSWPWIRQFPGNKLEWLGYIHSSGRTNYNPSLKSRISITRDTSKNQFFLQLNSVTPEDTATYYCARSQLGLVFFAYWGQGTLVTVSA VL: DIVMTQSQKFMSTSVGDRVSVTCKASQSVGANVAWYQQIPGHSPKVLIYSASYRFSGVPDRFTGSGSGTDFTLTISNVQSEDLAEYFCQQYNSYPYTFGGGTKLEIRR	0.0446 µg/mL	0.0442 µg/mL	0.0489 µg/mL	0.0407 µg/mL	0.958 µg/mL					> 50 µg/mL	~55 µg/mL	~90 µg/mL	~90 µg/mL				
mouse antibody 61C11 (antibody, mouse IgG2a, V domains shown, Mouse IgG2a/kappa from hybridoma; also called m61C11; LB55.61C11.2B1) VH: QAYLQQSGAELVRSGASVKMSCKASGYTFTSYNLHWIKLTPGQGLEWIGYIYPGLNGTLYNQKFRGKATLTADTSSSTAYMQISSLTSEDSAVYFCARSDYGKAWFAYWGRGTLVTVSA VL: DILLTQSPAILSVSPGERVSFSCRASQSIATKIHWYQQRTDHSPRLLIQLGSESISGIPSRFSGSGSGTDFTFTINSVESEDIAVYYCQQSNRYPYTFGGGTKLEVKR	0.162 µg/mL	0.174 µg/mL	0.139 µg/mL	0.172 µg/mL	0.26 µg/mL	0.026 µg/mL				> 10 µg/mL	~13 µg/mL	~18 µg/mL	~15 µg/mL				
mouse antibody 4G8 (antibody, mouse IgG1, V domains shown, Mouse IgG1/kappa from hybridoma; also called m4G8; LB55.4G8.2A6) VH: QVQLKQSGPGLVQPSQSLSITCTVSGFSLTIYGLHWVRQSPGKGLEWLGVIWRGGSTDYNAAFMSRLRITKDNSKSQVFFKMDSLQADDTAIYYCAKPYYDYDGNWYFDVWGAGTTVTVSS VL: DIVMTQSQKFMSTSVGDRVSVTCKASQNVGTNVAWYQKKSGQSPKPLIYSASSHCSEVPDRFTGSGSGTDFTLTINNVQSEDLAEYFCQQYNRYPLTFGTGTKLEVRR	0.262 µg/mL	0.292 µg/mL	0.202 µg/mL	0.291 µg/mL	0.081 µg/mL	0.0059 µg/mL											

Reference: patent publication US20110020369A1 (SCHERING, published 2011)
